{"source": "patent US11607466B2", "about": "“Tumor and immune cell imaging based on PD-L1 expression” (The Johns Hopkins University, priority 2016, dated 2023)", "key": {"PD-L1 in hPD-L1 cells": {"target": "T1, PD-L1 in hPD-L1 cells (Homo sapiens, UniProt Q9NZQ7)", "T1 construct": "expressed in transfected cells; grown as tumours in NSG mice for the in vivo units", "T1 sequence (Q9NZQ7 19-290)": "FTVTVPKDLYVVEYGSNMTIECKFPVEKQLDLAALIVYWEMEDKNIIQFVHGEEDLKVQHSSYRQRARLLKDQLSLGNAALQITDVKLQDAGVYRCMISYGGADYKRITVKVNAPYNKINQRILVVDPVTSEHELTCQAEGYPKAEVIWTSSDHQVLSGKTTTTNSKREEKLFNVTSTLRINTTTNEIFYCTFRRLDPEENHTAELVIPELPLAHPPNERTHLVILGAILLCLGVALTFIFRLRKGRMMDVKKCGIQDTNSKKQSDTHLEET", "assay": "In vitro binding of [64Cu]WL12 to hPD-L1 and CHO cells", "assay_type": "cell-based", "settings": "compared with WL12", "procedure": "1.4.9. […] After incubation, cells were washed three times with cold PBS prior to counting on an automated gamma counter (1282 Compugamma CS, Pharmacia/LKBNuclear, Inc., Gaithersburg, Md.). […] Mean fluorescence intensity values were correlated with % incubated dose (% ID) uptake. All the cell uptake studies were performed in triplicate for each cell line and repeated three times."}, "PD-L1 in MDAMB231 tumors": {"target": "T2, PD-L1 in MDAMB231 tumors (Homo sapiens, UniProt Q9NZQ7)", "T2 construct": "MDAMB231 breast cancer cells, which naturally express PD-L1; endogenous in cells; host or cells: MDAMB231 (ATCC); as xenografts in NSG mice for the in vivo units", "T2 sequence (Q9NZQ7 19-290)": "as above", "assay": "Effect of AtzMab dose on tumor PD-L1 occupancy, inhibitory sigmoidal Emax model of [64Cu]WL12 % ID/g", "assay_type": "in vivo", "procedure": "To evaluate the effect of dose on tumor PD-L1 occupancy at the tumor, mice bearing MDAMB231 tumors were injected with escalating doses of AtzMab from 0.009 to 24 mg/kg body weight. […] At the 0.6 and 3.2 mg/kg dose, there was a proportionate decrease in signal intensity in the tumors indicating—for the 3.2 mg/kg dose—a near 100% target engagement at the tumor by the antibody.\nThe accumulated radioactivity (% ID/g) in the tumors was then used to fit an inhibitory sigmoidal E. model."}, "human PD-L1": {"target": "human PD-L1 (Homo sapiens, UniProt Q9NZQ7)", "sequence (Q9NZQ7 19-290)": "as above", "settings": "read-out: dissociation constant (Kd), human PD-L1; cited from earlier work"}}, "note": "pKd: −log10 of the molar value. “And” between values parts separate entries of the source, which are not always exact repeats. Equal entries are not always repeated."}
{"substance": "AtzMab: therapeutic PD-L1 antibody Atezolizumab", "values": [{"measurement": "potency at inhibiting [64Cu]WL12 binding", "setting": "PD-L1 in hPD-L1 cells", "value": "more potent than WL12"}, {"measurement": "ID90", "setting": "PD-L1 in MDAMB231 tumors; 90% of Imax", "value": 0.87, "unit": "mg/kg"}, {"measurement": "ID96", "setting": "PD-L1 in MDAMB231 tumors; 96% of Imax", "value": 1.19, "unit": "mg/kg"}, {"measurement": "ID50, dose for 50% of the maximum PD-L1 engagement in the tumor", "setting": "PD-L1 in MDAMB231 tumors; MDAMB231 tumors, 24 h after dose", "value": "0.43 mg/kg and 0.43 (10%) mg/kg"}, {"measurement": "expected average plasma concentration", "setting": "PD-L1 in MDAMB231 tumors; at ID50, assuming Vss 50 mL/kg", "value": "59 nM and 8.6 mcg/mL"}, {"measurement": "expected average plasma concentration", "setting": "PD-L1 in MDAMB231 tumors; at ID90, assuming Vss 50 mL/kg", "value": "120 nM and 17.4 mcg/mL"}, {"measurement": "expected average plasma concentration", "setting": "PD-L1 in MDAMB231 tumors; at ID96, assuming Vss 50 mL/kg", "value": "164 nM and 23.8 mcg/mL"}, {"measurement": "Imax", "setting": "PD-L1 in MDAMB231 tumors; maximum fractional decrease in free PD-L1 ligands, mean (% RSE)", "value": "0.57 (3%)"}, {"measurement": "Hill coefficient", "setting": "PD-L1 in MDAMB231 tumors; mean (% RSE)", "value": "3.12 (19%)"}, {"measurement": "Residual error", "setting": "PD-L1 in MDAMB231 tumors; mean (% RSE)", "value": "0.44 (14%) % ID/g"}, {"measurement": "Baseline free PD-L1 ligands", "setting": "PD-L1 in MDAMB231 tumors; mean parameter value (% relative standard error)", "value": "5.91 (1%) % ID/g"}, {"measurement": "[64Cu]WL12 accumulation in tumors vs antibody dose", "setting": "PD-L1 in MDAMB231 tumors; various doses, 24 h prior, biodistribution 2 h after tracer", "value": "reduced with increasing antibody dose"}, {"measurement": "pKd", "setting": "human PD-L1", "value": 9.37}]}
